From publication doi:10.1101/411793

Tested on: DosR (phosphorylated) (Mycobacterium tuberculosis)
Assay: EMSA

Q: hspX promoter probe was tested. Which binding signal (fold inhibition of binding vs DMSO) did it give?
A: 22
